Reference: article PMC6393702
Changes are numbered by the printed parent chain.

T1: His-Vfr (UniProt P55222 1-214)
T1 sequence: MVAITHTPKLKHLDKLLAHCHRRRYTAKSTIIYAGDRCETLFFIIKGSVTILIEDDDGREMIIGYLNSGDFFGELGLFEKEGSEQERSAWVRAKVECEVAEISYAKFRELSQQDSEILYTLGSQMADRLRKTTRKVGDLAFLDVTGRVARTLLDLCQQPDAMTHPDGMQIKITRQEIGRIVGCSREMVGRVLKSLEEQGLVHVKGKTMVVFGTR

B1: Vfr CRE probe (dsDNA)
DNA 1: TCCACGACAATGTGCCTCGCTTGGAAGCTCACGCTCCTCACACAGACGAAAAC
DNA 2: GTTTTCGTCTGTGTGAGGAGCGTGAGCTTCCAAGCGAGGCACATTGTCGTGGA
B2: Vfr CRE-Δ probe (dsDNA)
DNA 1: B1 DNA 1 with T11C, G12C, T13C, G14A
DNA 2: B1 DNA 2 with C40T, A41G, C42G, A43G

Molecular target: T1, His-Vfr
Assay: EMSA

Row | Binder | binding result
1 | B1 | binds
2 | B2 | no binding
